The values that follow come from patent US20120264212.

This data set relates to T1, Dab2 N-terminal phosphotyrosine binding (N-PTB) domain, residues 1-241 of human Disabled-2, wild type.
T1 sequence: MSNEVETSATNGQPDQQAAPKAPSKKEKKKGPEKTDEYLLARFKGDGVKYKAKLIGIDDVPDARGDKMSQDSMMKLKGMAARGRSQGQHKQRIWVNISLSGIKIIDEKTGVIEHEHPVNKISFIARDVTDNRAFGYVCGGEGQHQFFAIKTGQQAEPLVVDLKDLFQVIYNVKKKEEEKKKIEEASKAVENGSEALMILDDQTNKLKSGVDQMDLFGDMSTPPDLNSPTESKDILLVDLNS

For the substance thrombin, the “thrombin limited proteolysis (SDS-PAGE)” value is “thrombin cleaved the N-PTB domain leaving a ˜25 kDa protease-resistant product”.
